In PMC2206725, “Characterization of a negative transcriptional element in the BRCA1 promoter”:

Target: GABP alpha (MBP fusion from pMAL-C2);GABP beta (MBP fusion from pMAL-C2) (Homo sapiens;Homo sapiens, UniProt Q06546;Q06547 1-454;1-395, |)
Test: EMSA; Bandshift conditions as in ref [16], not given; 6% nondenaturing acrylamide gel; recombinant proteins eluted in 25 mM HEPES pH 7.6, 0.1 mM EDTA, 40 mM KCl, 10%
Settings: protein: recombinant;recombinant; tags: MBP N-terminal (pMAL-C2 vector);MBP N-terminal (pMAL-C2 vector); copies: 1;1; label: 32P

GABP alpha (MBP fusion from pMAL-C2);GABP beta (MBP fusion from pMAL-C2), sequence (Q06546 whole entry, chain 1 of 2, the tested form may be a part): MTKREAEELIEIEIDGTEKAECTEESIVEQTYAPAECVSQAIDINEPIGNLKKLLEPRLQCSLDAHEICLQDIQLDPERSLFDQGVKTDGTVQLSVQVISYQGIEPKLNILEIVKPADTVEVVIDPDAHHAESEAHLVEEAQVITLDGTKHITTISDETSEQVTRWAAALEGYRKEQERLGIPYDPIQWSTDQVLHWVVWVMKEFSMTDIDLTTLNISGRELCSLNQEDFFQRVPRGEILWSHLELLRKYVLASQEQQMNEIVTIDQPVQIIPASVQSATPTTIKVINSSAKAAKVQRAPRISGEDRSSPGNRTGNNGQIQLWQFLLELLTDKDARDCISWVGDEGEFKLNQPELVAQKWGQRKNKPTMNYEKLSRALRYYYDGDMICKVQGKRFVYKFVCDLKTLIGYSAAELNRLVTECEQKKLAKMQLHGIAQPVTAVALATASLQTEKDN
GABP alpha (MBP fusion from pMAL-C2);GABP beta (MBP fusion from pMAL-C2), sequence (Q06547 whole entry, chain 2 of 2, the tested form may be a part): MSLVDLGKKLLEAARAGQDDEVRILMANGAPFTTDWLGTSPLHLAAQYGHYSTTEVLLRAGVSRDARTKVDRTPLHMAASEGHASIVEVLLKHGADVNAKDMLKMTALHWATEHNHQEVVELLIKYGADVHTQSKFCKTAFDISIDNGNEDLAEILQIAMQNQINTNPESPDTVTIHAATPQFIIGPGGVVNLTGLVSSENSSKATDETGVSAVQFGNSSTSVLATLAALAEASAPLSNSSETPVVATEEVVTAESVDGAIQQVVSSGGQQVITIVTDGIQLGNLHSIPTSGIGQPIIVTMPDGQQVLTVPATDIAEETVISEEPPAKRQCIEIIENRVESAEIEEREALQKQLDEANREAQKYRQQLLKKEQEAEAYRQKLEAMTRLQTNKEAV

B1: UP (dsDNA)
DNA 1: CCTTGGTTTCCGTGGCAACGGAACCTT
DNA 2: AAGGTTCCGTTGCCACGGAAACCAAGG
  binding result: binds

B2: UPFR6 (dsDNA)
DNA 1: CCTTGGTTTCCGTGGCAACGGAAAAGCGCGGGAATTACAG
DNA 2: CTGTAATTCCCGCGCTTTTCCGTTGCCACGGAAACCAAGG
  binding result: binds

B3: UPFR6mUP (dsDNA)
DNA 1: CCTTCTTTTAAGTTTCAACGGAAAAGCGCGGGAATTACAG
DNA 2: CTGTAATTCCCGCGCTTTTCCGTTGAAACTTAAAAGAAGG
  binding result: no binding

B4: UPFR6mGA (dsDNA)
DNA 1: CCTTGGTTTAAGTGGCAACGGAAAAGCGCGGGAATTACAG
DNA 2: CTGTAATTCCCGCGCTTTTCCGTTGCCACTTAAACCAAGG
  binding result: no binding

B5: UPFR6mUS (dsDNA)
DNA 1: CCTTGGTTTCCGTGGCGGTTTAAAAGCGCGGGAATTACAG
DNA 2: CTGTAATTCCCGCGCTTTTAAACCGCCACGGAAACCAAGG
  binding result: binds

B6: UPFR6mGAmUS (dsDNA)
DNA 1: CCTTGGTTTAAGTGGCGGTTTAAAAGCGCGGGAATTACAG
DNA 2: CTGTAATTCCCGCGCTTTTAAACCGCCACTTAAACCAAGG
  binding result: no binding
